Where two headings read alike, the source gives them in different places.
Assays:
GPCR135 = molecular target: T1, GPCR135 (Homo sapiens, UniProt Q9NSD7); experiment: Radioligand competition binding with 125I-relaxin3, COS-7 cell membranes; design: expressed in transfected cells; host or cells: COS-7 (membranes); conditions: COS-7 membranes, 100 pM radioligand
T1 sequence (Q9NSD7 1-469): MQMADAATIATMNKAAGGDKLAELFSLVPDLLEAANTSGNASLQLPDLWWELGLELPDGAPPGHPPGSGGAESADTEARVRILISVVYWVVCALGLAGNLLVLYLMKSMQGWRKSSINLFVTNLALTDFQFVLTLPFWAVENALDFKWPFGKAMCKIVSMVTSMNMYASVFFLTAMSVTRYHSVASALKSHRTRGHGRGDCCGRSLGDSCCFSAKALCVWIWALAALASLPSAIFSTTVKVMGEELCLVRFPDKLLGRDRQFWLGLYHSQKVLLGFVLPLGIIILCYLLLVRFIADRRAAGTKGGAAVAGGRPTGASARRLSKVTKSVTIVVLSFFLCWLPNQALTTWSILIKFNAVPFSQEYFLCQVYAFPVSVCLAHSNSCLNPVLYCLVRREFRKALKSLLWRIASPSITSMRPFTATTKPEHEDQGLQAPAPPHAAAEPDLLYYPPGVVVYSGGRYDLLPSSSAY
Procedure: Cell membranes from COS-7 cells transiently expressing GPCR142 were incubated with ^125I-relaxin3 either in the presence or absence of various concentrations of different competitors in 96-well plates at a final volume of 200 μL in binding buffer: 50 mM Tris-HCl (pH 7.4), 2 mM EDTA plus 0.5% BSA. The binding mixtures were incubated at room temperature for 1 h and then were filtered through 96-well GFC plates (Packard) and washed with ice-cold washing buffer: 50 mM Tris-HCl, pH 7.4. Fifty microliters of Microscint-40 were added to each well and the plates were counted in a Topcounter NTX (Packard). The radioligand binding results were analyzed using GraphPad PRISM software.
This binding assay was also performed using GPCR135.
To characterize INSL5 as the possible ligand for GPCR135 and GPCR142, cell membranes from COS-7 cells transiently expressing human GPCR135 or GPCR142 were used in the radioligand binding assays using [^125I)-relaxin3 as the radioligand as described by Liu et al. (2003a, 2003b). […] The binding assays were performed at room temperature for an incubation time of one hour. The binding mixtures were then filtered through GFC filters pre-saturated with 0.3 polyethylenimine (Sigma) and washed with cold binding buffer. The bound radioligand was counted in a top counter (TopCount/NTX, Packard) with Microscint-40. The results were analyzed by Prism 3.0 software.

GPCR142 [1] = molecular target: T2, GPCR142 (Homo sapiens, UniProt Q8TDU9, L329S); experiment: Inhibition of forskolin-stimulated cAMP (CRE-β-galactosidase) in SK-N-MC cells; assay type: cell-based; design: The complete coding region of human GPCR142 was PCR-amplified from human genomic DNA; expressed in transfected cells; HEK293 co-transfected with Gqi5 (Ca2+); conditions: SK-N-MC cells stably expressing GPCR142
T2 sequence (Q8TDU9 whole entry L329S): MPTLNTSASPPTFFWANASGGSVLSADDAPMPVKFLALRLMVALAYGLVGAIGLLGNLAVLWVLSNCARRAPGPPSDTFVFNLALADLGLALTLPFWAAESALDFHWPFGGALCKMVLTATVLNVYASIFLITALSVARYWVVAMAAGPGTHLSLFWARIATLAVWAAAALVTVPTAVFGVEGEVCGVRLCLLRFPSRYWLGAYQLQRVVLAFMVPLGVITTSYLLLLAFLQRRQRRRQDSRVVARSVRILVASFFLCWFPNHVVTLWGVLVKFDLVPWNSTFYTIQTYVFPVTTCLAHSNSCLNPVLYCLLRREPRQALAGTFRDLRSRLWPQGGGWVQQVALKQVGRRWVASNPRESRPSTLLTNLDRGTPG
Procedure: SK-N-MC cells stably expressing GPCR142 were established by transfection of GPCR142 expressing plasmids into SK-N-MC cells harboring a β-galactosidase gene under control of multiple cAMP responsive elements. The stable transfectants were selected by culturing the transfected cells under G418 selection (400 mg/L). The receptor expressing cells were seeded in 96-well plates at a cell density of 30,000 cells/well. After 24 h, cells were stimulated with forskolin or different peptides. Cells were cultured for an additional 6 h and the intracellular β-gal activity, which represents the intracellular cAMP accumulation, was measured as described by Liu et al. (2000), Mol. Pharmacol., 59, 420-426.

GPCR142 [2] = molecular target: T2, GPCR142; experiment: GTPγS binding assay, GPCR142 expressing cell membranes; assay type: biochemical; design: The complete coding region of human GPCR142 was PCR-amplified from human genomic DNA; expressed in transfected cells; CHO membranes (GTPγS); HEK293 co-transfected with Gα16 (Ca2+)
Procedure: The GPCR142 expression vector described above was transfected into CHO cells using Lipofectamine (Invitrogen) according to the manufacturer's instructions. Two days after transfection, the cells were harvested and the cell membranes were prepared by homogenizing the cells in cold 50 mM Tris-HCl, 5 mM EDTA, pH 7.5 followed by centrifugation at 4° C. 1000 g for 10 min. The supernatant was centrifuged at 4° C. 20,000 g for 30 min and the pellet was re-suspended in GTPγS binding buffer: 50 mM Tris-HCl, pH 7.4, 10 mM MgCl2, 1 mM EDTA, pH 8.0, and 100 mM NaCl using a polytron tissue homogenizer. Protease inhibitors were added to the buffer at concentrations of 1 mM PMSF, 10 μg/ml of pepstatin A, 10 μg/ml of leupeptin. Cell membranes and different concentrations of ligands were added to 96-well plates and incubated at room temperature for 20 min. ^35S-GTPγS (NEN) was then added to each well at a final concentration of […] in a final volume of 200 μL. The reactions were allowed to proceed at room temperature for 1 h, and then the mixtures were filtered though a 96-well GFC filter plate (Packard) and washed with cold washing buffer: 50 mM Tris-HCl, pH 7.4, 10 mM MgCl2. Fifty microliters of Microscint-40 (Packard) was added to each well and the plate was counted on a top counter (TopCount NTX, Packard).

GPCR142 [3] = molecular target: T2, GPCR142; experiment: Radioligand binding assay with 125I-relaxin3 (saturation and competition), COS-7 cell membranes; design: The complete coding region of human GPCR142 was PCR-amplified from human genomic DNA; expressed in transfected cells; conditions: competition binding, COS-7 membranes; listed as unlabeled relaxin3
Procedure: The binding mixtures were incubated at room temperature for 1 h and then were filtered through 96-well GFC plates (Packard) and washed with ice-cold washing buffer: 50 mM Tris-HCl, pH 7.4. Fifty microliters of Microscint-40 were added to each well and the plates were counted in a Topcounter NTX (Packard). The radioligand binding results were analyzed using GraphPad PRISM software.
The binding assays were performed at room temperature for an incubation time of one hour. The binding mixtures were then filtered through GFC filters pre-saturated with 0.3 polyethylenimine (Sigma) and washed with cold binding buffer. The bound radioligand was counted in a top counter (TopCount/NTX, Packard) with Microscint-40. The results were analyzed by Prism 3.0 software.

relaxin3: Human relaxin3 (SEQ ID NO: 6), produced recombinantly; mature peptide of A- and B-chain linked by disulfide bridges
displacement of 125I-relaxin3 binding to GPCR135 (GPCR135): specifically displaced | inhibition of forskolin induced β-galactosidase expression (GPCR142 [1]): dose-dependently inhibits | stimulation of 35S-GTPγS binding (agonist activity) (GPCR142 [2]): stimulate | stimulation of 35S-GTPγS binding (agonist activity) (GPCR142 [2]; listed as human recombinant relaxin3): stimulated GTPγS binding | displacement of 125I-relaxin3 binding to GPCR142 (GPCR142 [3]): specifically displaced
